Reference: publication PMC6555819, “Comprehensive study of nuclear receptor DNA binding provides a revised framework for understanding receptor specificity”

B1: NRC3_random_hg19_416_o1 (dsDNA)
DNA 1: GCCCTAGTTGGACCTGTGGGAAGGGCACTACTGTTCGCGATTGACAGCGTAGAATGAAGG
DNA 2: CCTTCATTCTACGCTGTCAATCGCGAACAGTAGTGCCCTTCCCACAGGTCCAACTAGGGC
B2: NRC3_random_hg19_168_o1 (dsDNA)
DNA 1: GCACAGAAATGAAATGGGCTATAGAGCTCATCTTCTGCGATTGACAGCGTAGAATGAAGG
DNA 2: CCTTCATTCTACGCTGTCAATCGCAGAAGATGAGCTCTATAGCCCATTTCATTTCTGTGC
B3: NRC3_random_hg19_317_o1 (dsDNA)
DNA 1: GCGCCTCCTTCTTTCCTTTGTCATCTGGTGGTGGGAGCGATTGACAGCGTAGAATGAAGG
DNA 2: CCTTCATTCTACGCTGTCAATCGCTCCCACCACCAGATGACAAAGGAAAGAAGGAGGCGC
B4: NRC3_random_hg19_313_o1 (dsDNA)
DNA 1: GCACTACATAAGTAATCATCTCCCTCTGCAACTGGGGCGATTGACAGCGTAGAATGAAGG
DNA 2: CCTTCATTCTACGCTGTCAATCGCCCCAGTTGCAGAGGGAGATGATTACTTATGTAGTGC
B5: NRC3_wobSeed63_DR2_G10A_o1 (dsDNA)
DNA 1: GCCGAACTAAGTCACCAGGACAGTGAAGAGGTTGGAGCGATTGACAGCGTAGAATGAAGG
DNA 2: CCTTCATTCTACGCTGTCAATCGCTCCAACCTCTTCACTGTCCTGGTGACTTAGTTCGGC
B6: NRC3_random_hg19_14_o1 (dsDNA)
DNA 1: GCGCAGGGACTATGTGCATTAGGCCAGTTCCTCATGGCGATTGACAGCGTAGAATGAAGG
DNA 2: CCTTCATTCTACGCTGTCAATCGCCATGAGGAACTGGCCTAATGCACATAGTCCCTGCGC
B7: NRC3_random_hg19_20_o1 (dsDNA)
DNA 1: GCTACACTCTCCCAAGACTAAACCAGGAAGAAGTTGGCGATTGACAGCGTAGAATGAAGG
DNA 2: CCTTCATTCTACGCTGTCAATCGCCAACTTCTTCCTGGTTTAGTCTTGGGAGAGTGTAGC
B8: NRC3_random_hg19_410_o1 (dsDNA)
DNA 1: GCTAACGAATGATCTTTCTAATGTGTTGTTGAATTCGCGATTGACAGCGTAGAATGAAGG
DNA 2: CCTTCATTCTACGCTGTCAATCGCGAATTCAACAACACATTAGAAAGATCATTCGTTAGC
B9: NRC3_wobSeed110_DR4_A9T_o1 (dsDNA)
DNA 1: GCTCTGCTTGGTCAACGATGGTCAGCTAATCTGCTAGCGATTGACAGCGTAGAATGAAGG
DNA 2: CCTTCATTCTACGCTGTCAATCGCTAGCAGATTAGCTGACCATCGTTGACCAAGCAGAGC
B10: NRC3_wobSeed110_DR4_G10T_o1 (dsDNA)
DNA 1: GCTCTGCTATGTCAACGATGGTCAGCTAATCTGCTAGCGATTGACAGCGTAGAATGAAGG
DNA 2: CCTTCATTCTACGCTGTCAATCGCTAGCAGATTAGCTGACCATCGTTGACATAGCAGAGC
B11: NRC3_random_hg19_218_o1 (dsDNA)
DNA 1: GCTTAGTCATGAAGTCTTTGCCCATGCCTGTGTCCTGCGATTGACAGCGTAGAATGAAGG
DNA 2: CCTTCATTCTACGCTGTCAATCGCAGGACACAGGCATGGGCAAAGACTTCATGACTAAGC
B12: NRC3_wobSeed6_DR0_G17T_o1 (dsDNA)
DNA 1: GCCCTAGCAGGCCAGGTTCACTCAAGCATTTCGCTTGCGATTGACAGCGTAGAATGAAGG
DNA 2: CCTTCATTCTACGCTGTCAATCGCAAGCGAAATGCTTGAGTGAACCTGGCCTGCTAGGGC
B13: NRC3_wobSeed101_DR4_C13A_o1 (dsDNA)
DNA 1: GCCCTTACGGGTAACTCCAGGTTATAGCATCGGAGTGCGATTGACAGCGTAGAATGAAGG
DNA 2: CCTTCATTCTACGCTGTCAATCGCACTCCGATGCTATAACCTGGAGTTACCCGTAAGGGC
B14: NRC3_wobSeed138_DR5_A8G_o1 (dsDNA)
DNA 1: GCGATACGGGGTCAGCTAGAGGCCAGAGTATGGAAAGCGATTGACAGCGTAGAATGAAGG
DNA 2: CCTTCATTCTACGCTGTCAATCGCTTTCCATACTCTGGCCTCTAGCTGACCCCGTATCGC
B15: NRC3_random_hg19_229_o1 (dsDNA)
DNA 1: GCTAAACTGTATCCACTTACCTTTCTCAGAACCTTTGCGATTGACAGCGTAGAATGAAGG
DNA 2: CCTTCATTCTACGCTGTCAATCGCAAAGGTTCTGAGAAAGGTAAGTGGATACAGTTTAGC
B16: NRC3_random_hg19_51_o1 (dsDNA)
DNA 1: GCGAGAAAGCTGAACTGTCACTCTTTGCTGATGATGGCGATTGACAGCGTAGAATGAAGG
DNA 2: CCTTCATTCTACGCTGTCAATCGCCATCATCAGCAAAGAGTGACAGTTCAGCTTTCTCGC

What follows are binders tested against RARg:RXRa (Homo sapiens, UniProt P13631;P19793 full;full) (assay: no ligand; PBM; 270 nM : 90 nM RXRa; PBS pH 7.4, 2% milk, 0.02% Triton X-100, 1 mM DTT, BSA, 0.4 mg/ml salmon testes DNA). Conditions: tags: His kept;His cleaved; copies: 1;1; label: surface-attached array probe.
Procedure, shortened: (§1)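 On custom Agilent 4×180K arrays, double-stranded probes with 34-nt variable regions carried direct-repeat seeds, single-nucleotide variants, half-site ablations or random human genomic background. Ligand-free nuclear receptor dimers were applied for 1 h, and binding was read with antibodies against each partner (one per run). Binding z-scores come from regression-normalized fluorescence, with the random background probes as reference.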

Chain of RARg:RXRa (P13631 whole entry, chain 1 of 2): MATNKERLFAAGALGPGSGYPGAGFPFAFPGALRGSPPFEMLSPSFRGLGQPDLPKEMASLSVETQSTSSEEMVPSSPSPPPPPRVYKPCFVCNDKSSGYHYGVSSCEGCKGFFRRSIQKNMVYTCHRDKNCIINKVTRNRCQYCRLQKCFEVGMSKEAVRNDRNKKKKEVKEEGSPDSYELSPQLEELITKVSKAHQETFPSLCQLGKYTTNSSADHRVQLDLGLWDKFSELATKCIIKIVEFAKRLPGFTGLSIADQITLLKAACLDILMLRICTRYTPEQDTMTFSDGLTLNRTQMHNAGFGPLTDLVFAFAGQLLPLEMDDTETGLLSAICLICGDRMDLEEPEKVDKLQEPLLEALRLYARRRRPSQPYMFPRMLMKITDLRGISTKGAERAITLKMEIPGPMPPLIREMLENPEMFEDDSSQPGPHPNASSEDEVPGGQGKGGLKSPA
Chain of RARg:RXRa (P19793 whole entry, chain 2 of 2): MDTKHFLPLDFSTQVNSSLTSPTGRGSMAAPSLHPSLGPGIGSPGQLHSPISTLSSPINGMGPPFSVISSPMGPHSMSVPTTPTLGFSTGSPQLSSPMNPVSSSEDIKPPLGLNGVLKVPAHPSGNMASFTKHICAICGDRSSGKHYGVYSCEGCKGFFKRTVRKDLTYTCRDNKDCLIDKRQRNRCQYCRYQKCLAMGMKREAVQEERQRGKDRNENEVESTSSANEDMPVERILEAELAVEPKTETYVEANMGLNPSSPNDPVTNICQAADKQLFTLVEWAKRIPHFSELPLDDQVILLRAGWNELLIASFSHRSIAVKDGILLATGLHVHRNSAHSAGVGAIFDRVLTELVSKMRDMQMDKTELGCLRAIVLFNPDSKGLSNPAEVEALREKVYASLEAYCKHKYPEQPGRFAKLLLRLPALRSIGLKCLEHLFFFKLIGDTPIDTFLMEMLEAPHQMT

Compared with B1, B2 is higher in binding signal: -0.27 PBM z-score against 500 random probes for the first, -0.02 PBM z-score against 500 random probes for the second.

Going from B3 to B4, the binding signal rises from -1.07 PBM z-score against 500 random probes to 0.18 PBM z-score against 500 random probes.

First: B5
Second: B6
The binding signal of the first is higher: 0.3 PBM z-score against 500 random probes for the first, -0.69 PBM z-score against 500 random probes for the second.

Going from B7 to B8, the binding signal falls from 0.15 PBM z-score against 500 random probes to 0.07 PBM z-score against 500 random probes.

Compared with B9, B10 is lower in binding signal: 0.29 PBM z-score against 500 random probes for the first, 0.22 PBM z-score against 500 random probes for the second.

Compared with B11, B12 is higher in binding signal: -0.54 PBM z-score against 500 random probes for the first, 0.25 PBM z-score against 500 random probes for the second.

Going from B13 to B14, the binding signal rises from 0.35 PBM z-score against 500 random probes to 7.98 PBM z-score against 500 random probes.

Going from B15 to B16, the binding signal falls from 0.44 PBM z-score against 500 random probes to 0.04 PBM z-score against 500 random probes.

The binders below were run against PPARa:RXRa (Homo sapiens, UniProt Q07869;P19793 full;full) in the same assay as above. Conditions: tags: GST kept;His cleaved; copies: 1;1; label: surface-attached array probe.
Procedure, shortened: as §1

Chain of PPARa:RXRa (Q07869 whole entry, chain 1 of 2): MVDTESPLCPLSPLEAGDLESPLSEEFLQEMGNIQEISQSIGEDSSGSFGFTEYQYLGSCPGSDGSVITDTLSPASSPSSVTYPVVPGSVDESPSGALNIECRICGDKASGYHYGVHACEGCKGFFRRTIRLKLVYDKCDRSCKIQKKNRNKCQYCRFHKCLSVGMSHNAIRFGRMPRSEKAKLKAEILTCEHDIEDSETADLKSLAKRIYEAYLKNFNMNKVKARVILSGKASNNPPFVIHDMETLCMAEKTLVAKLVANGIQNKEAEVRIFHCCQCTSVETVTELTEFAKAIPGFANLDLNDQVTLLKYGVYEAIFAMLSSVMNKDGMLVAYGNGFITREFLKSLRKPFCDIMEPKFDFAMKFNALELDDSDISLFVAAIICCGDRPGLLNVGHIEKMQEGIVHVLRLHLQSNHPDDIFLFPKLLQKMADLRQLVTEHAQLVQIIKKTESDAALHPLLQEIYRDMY
Chain of PPARa:RXRa (P19793 whole entry, chain 2 of 2): as the sequence (P19793 whole entry, chain 2 of 2) above

Compared with B3, B6 is lower in binding signal: -0.11 PBM z-score against 500 random probes for the first, -1.96 PBM z-score against 500 random probes for the second.

Compared with B7, B14 is higher in binding signal: 0.29 PBM z-score against 500 random probes for the first, 6.77 PBM z-score against 500 random probes for the second.
